Data reported in patent US20120316071A1 (published 2012).

Columns and labels:
[1] = molecular target: T1, rHuman Erythropoietin R/Fc Chimera, CF (R&D Systems Cat#963-ER) (human, UniProt P19235 25-250); test: ECL multispot (MSD) assay, spotted antigen; Fab 0.20 (head prints uM)
T1 construct: Bought recombinant protein; also called EPO R; EPO R/Fc; Fc part of the bought chimera not given
T1 sequence (looked up): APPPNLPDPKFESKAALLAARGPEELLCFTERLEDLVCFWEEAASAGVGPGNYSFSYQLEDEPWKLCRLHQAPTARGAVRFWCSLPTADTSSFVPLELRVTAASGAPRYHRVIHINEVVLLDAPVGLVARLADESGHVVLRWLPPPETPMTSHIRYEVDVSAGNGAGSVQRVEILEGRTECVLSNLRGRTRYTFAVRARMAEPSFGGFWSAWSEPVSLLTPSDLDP

[2] = molecular target: T2, Recombinant Human DLL4 (R&D Systems Cat#1506-D4/CF) (human, UniProt Q9NR61 27-524); test: as above
T2 construct: Bought recombinant protein; also called delta-like protein 4

[3] = molecular target: T3, rHuman ErbB2/Fc Chimera, CF (R&D Systems Cat#1129-ER) (human, UniProt P04626 23-652); test: as above
T3 construct: Bought recombinant protein; Fc part of the bought chimera not given

[4] = molecular target: T4, rHuman EGF R/Fc Chimera, CF (R&D Systems Cat#344-ER) (human, UniProt P00533 25-645); test: as above
T4 construct: Bought recombinant protein; Fc part of the bought chimera not given

[5] = molecular target: T5, rHuman Notch-1/Fc Chimera, CF (R&D Systems Cat#3647-TK) (human, UniProt P46531 19-526); test: as above
T5 construct: Bought recombinant protein; Fc part of the bought chimera not given

[6] = molecular target: T6, rHuman CD44/Fc Chimera, CF (R&D Systems Cat#3660-CD) (human, UniProt P16070 21-220); test: as above
T6 construct: Bought recombinant protein; Fc part of the bought chimera not given

[7] = molecular target: T7, rHuman IGF-1 sR, CF (R&D Systems Cat#391-GR) (human, UniProt P08069 31-932); test: as above
T7 construct: Bought soluble receptor; The column head prints only 'IGF-1'; also called insulin-like growth factor-1 soluble receptor

[8] = molecular target: T1, rHuman Erythropoietin R/Fc Chimera, CF …; test: ECL multispot (MSD) assay, spotted antigen; Fab 2.00 (head prints uM)
[9] = molecular target: T2, Recombinant Human DLL4 (R&D Systems …); test: as above
[10] = molecular target: T3, rHuman ErbB2/Fc Chimera, CF (R&D …); test: as above
[11] = molecular target: T4, rHuman EGF R/Fc Chimera, CF (R&D …); test: as above
[12] = molecular target: T5, rHuman Notch-1/Fc Chimera, CF (R&D …); test: as above
[13] = molecular target: T6, rHuman CD44/Fc Chimera, CF (R&D Systems …); test: as above
[14] = molecular target: T7, rHuman IGF-1 sR, CF (R&D Systems …); test: as above
[15] = molecular target: T1, rHuman Erythropoietin R/Fc Chimera, CF …; test: ECL multispot (MSD) assay, spotted antigen; Fab 20.00 (head prints uM)
[16] = molecular target: T2, Recombinant Human DLL4 (R&D Systems …); test: as above
[17] = molecular target: T3, rHuman ErbB2/Fc Chimera, CF (R&D …); test: as above
[18] = molecular target: T4, rHuman EGF R/Fc Chimera, CF (R&D …); test: as above
[19] = molecular target: T5, rHuman Notch-1/Fc Chimera, CF (R&D …); test: as above
[20] = molecular target: T6, rHuman CD44/Fc Chimera, CF (R&D Systems …); test: as above
[21] = molecular target: T7, rHuman IGF-1 sR, CF (R&D Systems …); test: as above
[22] = molecular target: T1, rHuman Erythropoietin R/Fc Chimera, CF …; test: ECL multispot (MSD) assay, spotted antigen; Fab 200.00 (head prints uM)
[23] = molecular target: T2, Recombinant Human DLL4 (R&D Systems …); test: as above
[24] = molecular target: T3, rHuman ErbB2/Fc Chimera, CF (R&D …); test: as above
[25] = molecular target: T4, rHuman EGF R/Fc Chimera, CF (R&D …); test: as above
[26] = molecular target: T5, rHuman Notch-1/Fc Chimera, CF (R&D …); test: as above
[27] = molecular target: T6, rHuman CD44/Fc Chimera, CF (R&D Systems …); test: as above
[28] = molecular target: T7, rHuman IGF-1 sR, CF (R&D Systems …); test: as above
[29] = molecular target: T8, Recombinant Human DLL4 (delta-like protein 4) (human, UniProt Q9NR61 27-524); test: ELISA, Fab on coated recombinant human DLL4, signal minus noise
T8 construct: Bought recombinant human DLL4 (R&D Systems Cat#1506-D4/CF); also called rHuman DLL4; Delta-like 4

[30] = molecular target: T8, Recombinant Human DLL4 (delta-like …); test: ECL (MSD electrochemiluminescence) binding assay, Fab on immobilised recombinant human DLL4
[31] = molecular target: T9, rHuman EGF R/Fc Chimera, CF (R&D Systems Cat#344-ER) (human, UniProt P00533 25-645); test: MSD Multispot ECL, antigen spotted on plate, Fab in solution; blank spot of the row 240
T9 construct: Bought recombinant Fc chimera; also called epidermal growth factor receptor; Fc part of the bought chimera not given

[32] = molecular target: T10, rHuman HGF R/c-MET/Fc Chimera, CF (R&D Systems Cat#358-MT/CF) (human, UniProt P08581 25-932); test: as above
T10 construct: Bought recombinant Fc chimera; also called HGF R/Fc; hepatocyte growth factor receptor; Fc part of the bought chimera not given

[33] = molecular target: T11, rHuman Notch-1/Fc Chimera, CF (R&D Systems Cat#3647-TK) (human, UniProt P46531 19-526); test: as above
T11 construct: Bought recombinant Fc chimera; Fc part of the bought chimera not given

[34] = molecular target: T12, rHuman P-Cadherin/Fc Chimera, CF (R&D Systems Cat#861-PC) (human, UniProt P22223 108-654); test: as above
T12 construct: Bought recombinant Fc chimera; Fc part of the bought chimera not given

[35] = molecular target: T13, rHuman Erythropoietin R/Fc Chimera, CF (R&D Systems Cat#963-ER) (human, UniProt P19235 25-250); test: as above
T13 construct: Bought recombinant Fc chimera; also called EPO R; EPO R/Fc; Fc part of the bought chimera not given
T13 sequence (looked up): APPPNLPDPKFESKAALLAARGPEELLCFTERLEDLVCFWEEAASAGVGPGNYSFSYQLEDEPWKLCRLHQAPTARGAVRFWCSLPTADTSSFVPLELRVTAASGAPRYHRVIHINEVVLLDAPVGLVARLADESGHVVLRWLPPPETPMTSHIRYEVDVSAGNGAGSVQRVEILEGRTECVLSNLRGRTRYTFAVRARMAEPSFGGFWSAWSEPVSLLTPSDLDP

T10 sequence (P08581 25-932, change not shown): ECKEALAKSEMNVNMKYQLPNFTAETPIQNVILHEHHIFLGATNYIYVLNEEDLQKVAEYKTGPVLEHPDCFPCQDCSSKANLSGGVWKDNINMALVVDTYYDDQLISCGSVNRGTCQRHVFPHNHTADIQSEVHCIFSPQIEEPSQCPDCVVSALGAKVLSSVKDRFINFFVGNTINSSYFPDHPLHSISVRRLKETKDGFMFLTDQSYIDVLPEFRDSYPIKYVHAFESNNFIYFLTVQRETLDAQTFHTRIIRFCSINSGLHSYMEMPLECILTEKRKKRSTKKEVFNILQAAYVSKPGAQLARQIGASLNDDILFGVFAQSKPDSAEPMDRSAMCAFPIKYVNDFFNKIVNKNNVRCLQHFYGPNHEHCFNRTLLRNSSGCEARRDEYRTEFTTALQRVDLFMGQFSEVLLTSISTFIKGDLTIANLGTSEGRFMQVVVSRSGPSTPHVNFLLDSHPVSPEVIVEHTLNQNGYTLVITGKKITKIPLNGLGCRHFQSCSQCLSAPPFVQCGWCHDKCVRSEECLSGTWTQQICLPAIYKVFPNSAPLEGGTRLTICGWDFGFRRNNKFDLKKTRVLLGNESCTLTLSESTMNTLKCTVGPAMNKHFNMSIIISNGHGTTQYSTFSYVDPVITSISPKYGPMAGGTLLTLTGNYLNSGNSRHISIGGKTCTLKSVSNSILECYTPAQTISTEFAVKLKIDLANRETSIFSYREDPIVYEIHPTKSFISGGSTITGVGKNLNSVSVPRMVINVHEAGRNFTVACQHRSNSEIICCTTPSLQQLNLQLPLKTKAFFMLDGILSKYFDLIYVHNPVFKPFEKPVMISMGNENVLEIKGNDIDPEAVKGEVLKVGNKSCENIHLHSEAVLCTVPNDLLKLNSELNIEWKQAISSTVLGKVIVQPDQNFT

B1: Fab VH5-51_IGHD5-18*01>3_IGHJ4*01 & V3-4_IGLJ1*01 (Fab, V domains shown)
VH: EVQLVQSGAEVKKPGESLKISCKGSGYSFTSYWIGWVRQMPGKGLEWMGIIYPGDSDTRYSPSFQGQVTISADKSISTAYLQWSSLKASDTAMYYCARRGYSYGYDYFDYWGQGTLVTVSS
VL: QTVVTQEPSFSVSPGGTVTLTCGLSSGSVSTSYYPSWYQQTPGQAPRTLIYSTNTRSSGVPDRFSGSILGNKAALTITGAQADDESDYYCVLYMGSGISYVFGTGTKVTVL
notes: Tested as a Fab made in E. coli; The heavy chain vector (Plasmid A) adds CH1 with His6 and Flag tags, and the lambda light chain vector (Plasmid E) adds CL; also called Wt; wildtype
With B1 the ECL signal/noise ratio [1] was 2.5, the ECL signal/noise ratio [2] was 3 and the ECL signal/noise ratio [3] was 2.6. The ECL signal/noise ratio [4] was 3.4, the ECL signal/noise ratio [5] was 1.7 and the ECL signal/noise ratio [6] was 1.4. For the same binder, the ECL signal/noise ratio [7] was 2.9, the ECL signal/noise ratio [8] was 1.2 and the ECL signal/noise ratio [9] was 2.2. For the same binder, the ECL signal/noise ratio [10] was 1.8, the ECL signal/noise ratio [11] was 1.1 and the ECL signal/noise ratio [12] was 1.5. It also gave an ECL signal/noise ratio [13] of 1.1, an ECL signal/noise ratio [14] of 1.6 and an ECL signal/noise ratio [15] of 2. It also gave an ECL signal/noise ratio [16] of 21.1, an ECL signal/noise ratio [17] of 4.4 and an ECL signal/noise ratio [18] of 2.5. For the same binder, the ECL signal/noise ratio [19] was 1.6, the ECL signal/noise ratio [20] was 2.6 and the ECL signal/noise ratio [21] was 1.8. The ECL signal/noise ratio [22] was 2.2, the ECL signal/noise ratio [23] was 36.3 and the ECL signal/noise ratio [24] was 3.1. The ECL signal/noise ratio [25] was 2.9, the ECL signal/noise ratio [26] was 1.3 and the ECL signal/noise ratio [27] was 1.6. For the same binder, the ECL signal/noise ratio [28] was 2.8.

B2: Fab VH5-51_IGHD5-18*01>3_IGHJ4*01 G100K/G104T/T58A & V3-4_IGLJ1*01 (Fab, V domains shown)
VH: EVQLVQSGAEVKKPGESLKISCKGSGYSFTSYWIGWVRQMPGKGLEWMGIIYPGDSDARYSPSFQGQVTISADKSISTAYLQWSSLKASDTAMYYCARRKYSYTYDYFDYWGQGTLVTVSS
VL: QTVVTQEPSFSVSPGGTVTLTCGLSSGSVSTSYYPSWYQQTPGQAPRTLIYSTNTRSSGVPDRFSGSILGNKAALTITGAQADDESDYYCVLYMGSGISYVFGTGTKVTVL
notes: Fab expressed in E. coli: VH joined to CH1 (Plasmid A, His6 and Flag tags), VL joined to lambda CL (Plasmid E); also called H:KT T58A
With B2 the “ELISA (Signal-Noise)” value [29] was 0.07 and the “ECL signal” value [30] was 12900.

B3: Fab VH5-51_IGHD5-18*01>3_IGHJ4*01 G100K/G104T W33A & V3-4_IGLJ1*01 (Fab, V domains shown)
VH: EVQLVQSGAEVKKPGESLKISCKGSGYSFTSYAIGWVRQMPGKGLEWMGIIYPGDSDTRYSPSFQGQVTISADKSISTAYLQWSSLKASDTAMYYCARRKYSYTYDYFDYWGQGTLVTVSS
VL: QTVVTQEPSFSVSPGGTVTLTCGLSSGSVSTSYYPSWYQQTPGQAPRTLIYSTNTRSSGVPDRFSGSILGNKAALTITGAQADDESDYYCVLYMGSGISYVFGTGTKVTVL
notes: Fab made in E. coli; VH cloned into Plasmid A (CH1, His6 and Flag tags), lambda VL into Plasmid E (lambda CL); also called KT W33A
In the case of B3, the ECL signal [31] is reported as 761, the ECL signal [32] is reported as 735 and the ECL signal [33] is reported as 561. It also gave an ECL signal [34] of 302 and an ECL signal [35] of 424.

B4: Fab VH5-51_IGHD5-18*01>3_IGHJ4*01 G100K/G104T/S56G & V3-4_IGLJ1*01 (Fab, V domains shown)
VH: EVQLVQSGAEVKKPGESLKISCKGSGYSFTSYWIGWVRQMPGKGLEWMGIIYPGDGDTRYSPSFQGQVTISADKSISTAYLQWSSLKASDTAMYYCARRKYSYTYDYFDYWGQGTLVTVSS
VL: QTVVTQEPSFSVSPGGTVTLTCGLSSGSVSTSYYPSWYQQTPGQAPRTLIYSTNTRSSGVPDRFSGSILGNKAALTITGAQADDESDYYCVLYMGSGISYVFGTGTKVTVL
notes: Fab expressed in E. coli: VH joined to CH1 (Plasmid A, His6 and Flag tags), VL joined to lambda CL (Plasmid E); also called H:KT S56G
In the case of B4, the “ELISA (Signal-Noise)” value [29] is reported as 0.05 and the “ECL signal” value [30] is reported as 8430.
